Measured values: US20200095339A1 (IMMUNEONCO BIOPHARMACEUTICALS SHANGHAI, published 2020)

How the values were obtained:
human CD20 [1] = biological target: T1, human CD20 (human, UniProt P11836 1-297); test: cell-based or functional assay
T1 sequence (looked up): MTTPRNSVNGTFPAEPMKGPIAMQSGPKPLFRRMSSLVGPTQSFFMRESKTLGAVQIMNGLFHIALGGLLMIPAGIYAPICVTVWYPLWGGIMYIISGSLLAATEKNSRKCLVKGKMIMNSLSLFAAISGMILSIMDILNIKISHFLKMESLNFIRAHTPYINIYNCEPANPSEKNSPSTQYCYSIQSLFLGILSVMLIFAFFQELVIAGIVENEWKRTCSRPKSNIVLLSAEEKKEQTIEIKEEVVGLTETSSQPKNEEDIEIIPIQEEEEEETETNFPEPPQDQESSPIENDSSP

human CD20 [2] = biological target: T1, human CD20; test: flow cytometry on Raji-CD47KO cells (CD20+CD47-)
human CD47 [3] = biological target: T2, human CD47 (human, UniProt Q08722 19-323); test: FACS competition on Jurkat cells against 25 nM labelled SIRPα-Fc. Number printed in the IC50 table although the Rituximab curve shows no inhibition (see non_binding). The table prints no unit, nM is taken from the concentration axis
T2 construct: whole, on cells; Endogenous CD47 on tumor cell lines
Method: (§1) The mixture was cultured at RT for 30 minutes, and then incubated with Jurkat cells at RT for 1 hour. After washes, the cells was added with fluorescence labeled streptavidin (FITC-Strep) and then incubated at RT for 1 hour.

human CD47 [4] = biological target: T2, human CD47; test: flow cytometry on Jurkat cells (CD20-CD47+)
human CD47 [5] = biological target: T2, human CD47; test: FACS competition on Jurkat cells; competitor 25 nM biotin-SIRPα-Fc, detected with FITC-streptavidin
Method: as §1

human CD47 [6] = biological target: T2, human CD47; test: cell-based or functional assay

B1: Rituximab (antibody, V domains shown)
VH: QVQLQQPGAELVKPGASVKMSCKASGYTFTSYNMHWVKQTPGRGLEWIGAIYPGNGDTSYNQKFKGKATLTADKSSSTAYMQLSSLTSEDSAVYYCARSTYYGGDWYFNVWGAGTTVTVSA
VL: QIVLSQSPAILSASPGEKVTMTCRASSSVSYIHWFQQKPGSSPKPWIYATSNLASGVPVRFSGSGSGTSYSLTISRVEAEDAATYYCQQWTSNPPTFGGGTKLEIK
notes: Comparator antibody; also called Rituxan
ADCC EC50, Raji target cells, NK92MI-CD16a effector cells (human CD20 [1]): 3.82 ng/mL | ADCC EC50, Raji-CD47KO target cells, NK92MI-CD16a effector cells (human CD20 [1]): 1.13 ng/mL | EC50 (human CD20 [2]): 0.06 nM | IC50 (human CD47 [3]): 7.19 nM

B2: CD20mAb-SD1 (bispecific antibody, human IgG1, kappa)
heavy: not shown
light: QIVLSQSPAILSASPGEKVTMTCRASSSVSYIHWFQQKPGSSPKPWIYATSNLASGVPVRFSGSGSGTSYSLTISRVEAEDAATYYCQQWTSNPPTFGGGTKHELKRTVAAPSVFIFPPSDEQLKSGTASVVCLLNNFYPREAKVQWKVDNALQSGNSQESVTEQDSKDSTYSLSSTLTLSKADYEKHKVYACEVTHQGLSSPVTKSFNRGEC
notes: Four chains, two heavy and two light, joined by disulfide bonds; Expressed in CHO cells; also called recombinant bi-functional fusion protein; CD20Ab-SD1
ADCC EC50, Raji target cells, NK92MI-CD16a effector cells (human CD20 [1]): 0.14 ng/mL | ADCC EC50, Raji-CD47KO target cells, NK92MI-CD16a effector cells (human CD20 [1]): 0.14 ng/mL | CDC EC50, Raji target cells, rabbit complement (human CD20 [1]): 11 nM | EC50 (human CD47 [4]): 2.72 nM | EC50 (human CD20 [2]): 0.08 nM | EC50 (human CD47 [5]): 476 nM

B3: SD1-CD20mAb (bispecific antibody, human IgG1, kappa)
heavy: not shown
light: QIVLSQSPAILSASPGEKVTMTCRASSSVSYIHWFQQKPGSSPKPWIYATSNLASGVPVRFSGSGSGTSYSLTISRVEAEDAATYYCQQWTSNPPTFGGGTKHELKRTVAAPSVFIFPPSDEQLKSGTASVVCLLNNFYPREAKVQWKVDNALQSGNSQESVTEQDSKDSTYSLSSTLTLSKADYEKHKVYACEVTHQGLSSPVTKSFNRGEC
notes: Four chains, two heavy and two light, joined by disulfide bonds; Expressed in CHO cells; also called recombinant bi-functional fusion protein
ADCC EC50, Raji target cells, NK92MI-CD16a effector cells (human CD20 [1]): 0.15 ng/mL | ADCC EC50, Raji-CD47KO target cells, NK92MI-CD16a effector cells (human CD20 [1]): 0.1 ng/mL | CDC EC50, Raji target cells, rabbit complement (human CD20 [1]): 3.36 nM | phagocytosis of HL-60 cells by mouse macrophage cell line Ana-1, EC50 (human CD47 [6]): 300 ng/mL | EC50 (human CD47 [4]): 0.09 nM | EC50 (human CD20 [2]): 0.4 nM | EC50 (human CD47 [5]): 19.7 nM
